From article PMC8800120
“And” between values parts separate entries of the source, which are not always exact repeats. Equal values may be shown once.

Columns and labels:
Test in all cases: EMSA
[1] = tested on: alpha-synuclein (aSyn) (human); conditions: EMSA: 11 mM Tris, 1 mM EDTA, 50 mM NaCl, pH 8.0-8.5, 20 min on ice then 30 min RT, mutants/deltaNAC: 4 ul protein in 20 mM Tris-HCl, 200 mM NaCl in 10 ul, 0.5% …
[2] = tested on: phospho-S129 alpha-synuclein (pSyn) (human); conditions: EMSA: 11 mM Tris, 1 mM EDTA, 50 mM NaCl, pH 8.0-8.5, 20 min on ice then 30 min RT, mutants/deltaNAC: 4 ul protein in 20 mM Tris-HCl, 200 mM NaCl in 10 ul, 0.5% …
aSyn E46K (human) = conditions: 1.4 uM protein, 1.3 nM DNA; EMSA: 11 mM Tris, 1 mM EDTA, 50 mM NaCl, pH 8.0-8.5, 20 min on ice then 30 min RT; mutants/deltaNAC: 4 ul protein in 20 mM Tris-HCl, 200 mM NaCl in 10 ul, 0.5% …
aSyn A53T (human) = conditions: 1.4 uM protein, 1.3 nM DNA; EMSA: 11 mM Tris, 1 mM EDTA, 50 mM NaCl, pH 8.0-8.5, 20 min on ice then 30 min RT; mutants/deltaNAC: 4 ul protein in 20 mM Tris-HCl, 200 mM NaCl in 10 ul, 0.5% …
deltaNAC aSyn (human) = conditions: 1.4 uM protein, 1.3 nM DNA; EMSA: 11 mM Tris, 1 mM EDTA, 50 mM NaCl, pH 8.0-8.5, 20 min on ice then 30 min RT; mutants/deltaNAC: 4 ul protein in 20 mM Tris-HCl, 200 mM NaCl in 10 ul, 0.5% …
aSyn A30P (human) = conditions: 1.4 uM protein, 1.3 nM DNA; EMSA: 11 mM Tris, 1 mM EDTA, 50 mM NaCl, pH 8.0-8.5, 20 min on ice then 30 min RT; mutants/deltaNAC: 4 ul protein in 20 mM Tris-HCl, 200 mM NaCl in 10 ul, 0.5% …
[3] = tested on: beta-synuclein (bSyn) (human); conditions: up to 57 uM protein, 4 nM DNA; EMSA: 11 mM Tris, 1 mM EDTA, 50 mM NaCl, pH 8.0-8.5, 20 min on ice then 30 min RT; mutants/deltaNAC: 4 ul protein in 20 mM Tris-HCl, 200 mM NaCl in 10 ul, 0.5% …
[4] = tested on: gamma-synuclein (gSyn) (human); conditions: up to 57 uM protein, 4 nM DNA; EMSA: 11 mM Tris, 1 mM EDTA, 50 mM NaCl, pH 8.0-8.5, 20 min on ice then 30 min RT; mutants/deltaNAC: 4 ul protein in 20 mM Tris-HCl, 200 mM NaCl in 10 ul, 0.5% …

Work on “300 bp linear DNA with 4-base 5' overhangs” yielded a binding signal (fraction shifted) [1] of 0.917 and a binding signal (fraction shifted) [2] of 0.573.
Substance “300 bp linear DNA (ends not specified for the experiment)” has a binding signal (fraction shifted) (aSyn E46K (human)) of 0.975, a K half ([1]; 0.1 nM DNA) of 273 nM and a K half ([1]; 6 nM DNA) of 5850 nM. The binding signal (fraction shifted) ([1]; 1.4 uM protein, 1.3 nM DNA, deltaNAC series) was 0.597, the binding signal (fraction shifted) ([1]; 1.4 uM protein, 1.3 nM DNA, point mutant series) was 0.55 and the binding signal (fraction shifted) ([1]; 57 uM protein, 4 nM DNA, paralog series) was 0.199. The binding signal (fraction shifted) [1] was 1 and 0.997, the binding signal (fraction shifted) (aSyn A53T (human)) was 0.379 and the binding signal (fraction shifted) (deltaNAC aSyn (human)) was 1. For the same substance, the K half ([2]; 0.1 nM DNA) was 27.3 µM, the K half ([2]; 6 nM DNA) was 32.5 µM and the binding signal (fraction shifted) (aSyn A30P (human)) was 0.27. For the same substance, the binding signal (fraction shifted) [3] was 0 and the binding signal (fraction shifted) [4] was 0.
200 bp DNA was tested, and the binding signal (fraction shifted) [1] was 0.74 and the binding signal (fraction shifted) [2] was 0.12.
304 bp circular DNA (made with HMGB1) gave a K half ([1]; covalently closed circle) of 1610 nM.
Work on 500 bp DNA yielded a binding signal (fraction shifted) [1] of 1 and a binding signal (fraction shifted) [2] of 1.
300 bp DNA, 67% GC gave a binding signal (fraction shifted) ([1]; 57 uM aSyn) of 0.693.
Substance “304 bp circular DNA topoisomer (made with HMGB1)” has a K half ([1]; covalently closed circle, topoisomer) of 1640 nM.
Work on 125 bp DNA yielded a binding signal (fraction shifted) [1] of 0.327 and a binding signal (fraction shifted) [2] of 0.007.
300 bp linear DNA, blunt gave a binding signal (fraction shifted) [1] of 0.857 and a binding signal (fraction shifted) [2] of 0.607.
Substance 300 bp DNA, 56% GC has a binding signal (fraction shifted) ([1]; 57 uM aSyn) of 0.81.
300 bp DNA (length series) showed a binding signal (fraction shifted) [1] of 0.803 and a binding signal (fraction shifted) [2] of 0.617.
400 bp DNA gave a binding signal (fraction shifted) [1] of 0.947 and a binding signal (fraction shifted) [2] of 0.927.
